The text below walks through data of patent publication US20190248902A1 (published 2019).

Substitutions are numbered along the chain they refer to.

Sequences and labels used below:
T1: recombinant, soluble human ASGR-1 (human, UniProt P07306 62-291)
T1 construct: biotinylated in the binning assay; also called soluble huASGR-1; Soluble ASGR-1 (Amgen)
T1 sequence: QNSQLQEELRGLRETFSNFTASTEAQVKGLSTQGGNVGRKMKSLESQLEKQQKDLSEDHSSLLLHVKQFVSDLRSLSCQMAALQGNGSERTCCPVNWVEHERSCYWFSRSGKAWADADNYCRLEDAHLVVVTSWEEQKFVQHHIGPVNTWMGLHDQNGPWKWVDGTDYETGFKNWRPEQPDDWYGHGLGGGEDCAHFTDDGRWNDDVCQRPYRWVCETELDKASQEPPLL

B1: 179C2 (antibody, V domains shown)
VH: QVQLVESGGGVVQPGRSLRLSCAASGFTFSSYGMHWVRQAPGKGLEWVALIFYDGSNKYYADSVKGRFTISRDNSKNTLFLQMNSLRAEDTAVYYCARRYSGSWSGGMDVWGQGTTVTVSS
VL: DIVMTQTPLSLSVTPGQPASISCKSSQSLLHSEGKTYLYWYLQKPGQPPQLLIYEVSHRFSGVPDRFSGSGSGTDFTLKISRVEAEDVGVYYCMQSIQVLTFGGGTKVEIK
notes: hybridoma mAb
B2: 49C1 (antibody, V domains shown)
VH: B1 VH with A23T, L50V, F52W, F80Y, G102S
VL: DIVMTQTPLSLSVTPGQPASISCKSSQSLLHREGKTYLYWYLQKPGQAPQFLIFEVSHRFSGVPDRFSGSGSGTDFTLKISRVEAEDVGVYYCMQSIQIPITLGQGTRLEIK
notes: hybridoma mAb
B3: 73G1 (antibody, V domains shown)
VH: QVQLVESGGGVVQPGRSLRLSCAGTGFTFSYYGMHWVRQAPGKGLEWVAVTTYDGSNKYYADSVKGRFTSSRDNSKNTLYLQMNSLRAEDTAVYHCARETGTWAFDIWGQGTMVTVSL
VL: QTVVTQEPSFSVSPGGTVTLTCGLSSGSVSTSYYPSWYQQTPGQAPRTLIYNTNTRSSGVPDRFSGSILGNKAALTITGAQADDESDYYCVLYMGSAIWVFGGGTKLTVL
notes: hybridoma mAb
B4: 51E3 (antibody, V domains shown)
VH: QVQLVQSGAEVKKPGASVKVSCKASGYTFNSYGISWVRLAPGQGLEWMGWISAYNGNTKNAQRFQGRVTMTTDTSTSTAYMELRSLRSDDTAVYYCARHDFWSGYYKGMDVWGQGTTVTVSS
VL: not shown
notes: hybridoma mAb
B5: 54E9 (antibody, V domains shown)
VH: B4 VH with R63K, F64L
VL: not shown
notes: hybridoma mAb
B6: 53E8 (antibody, V domains shown)
VH: B4 VH with L39Q, N60F, R63K, F64L
VL: not shown
notes: hybridoma mAb
B7: 56E3 (antibody, V domains shown)
VH: B4 VH with I34F, L39Q, N60E, R63K, S88A
VL: not shown
notes: hybridoma mAb
B8: 190E6 (antibody, V domains shown)
VH: QVQLVESGGGVVQPGRSLRLSCAASGFTFSSYGMHWVRQAPGKGLEWVAVIWYDGSNKNYADSVKGRFTISRDNSKNTLYLQMNSLRAEDTAVYYCARDQGVGYDGLDVWGQGTTVTVSS
VL: DIQMTQSPSSLSASVGDRVTITCRTSQGIGNYLAWFQQKPGKAPKSLLYKASSLQSGVPSKFSGSGSGTDFTLTISSLQPEDFATYYCQQYMTYPLTFGGGTKVEIK
notes: hybridoma mAb
B9: 190F8 (antibody, V domains shown)
VH: B8 VH with S31T
VL: B8 VL
notes: hybridoma mAb
B10: 191G10 (antibody, V domains shown)
VH: B8 VH
VL: B8 VL with N31K, A51V
notes: hybridoma mAb
B11: 190C11 (antibody, V domains shown)
VH: B8 VH
VL: B8 VL with A51T
notes: hybridoma mAb
B12: 190G11 (antibody, V domains shown)
VH: B8 VH with S31I
VL: B8 VL
notes: hybridoma mAb
B13: 191G12 (antibody, V domains shown)
VH: B8 VH
VL: B8 VL with M92I, T102S
notes: hybridoma mAb
B14: 191E10 (antibody, V domains shown)
VH: B8 VH with V93M, T115S
VL: B8 VL with T25A, N31K, L48I, K50A, D82N, M92S
notes: hybridoma mAb
B15: 191G1 (antibody, V domains shown)
VH: B8 VH with K58E, N59H, Q100R, D105Y
VL: B8 VL with T25A, G30S, L48I, K50A, Q90H, M92L
notes: hybridoma mAb
B16: 191A10 (antibody, V domains shown)
VH: B8 VH with V93M, T115S
VL: B8 VL with T25A, N31K, L48I, K50A, S67Y, D82N, T85I, M92S
notes: hybridoma mAb
B17: 65D5 (antibody, V domains shown)
VH: QVQLVQSGAEVKKPGASVKVSCKASGYTFPSYGISWVRQAPGQGLEWMGWISAYSGNTNYAQKLQGRVTMTTDTSTSTAYMELRSLRSDDTAVYFCARGEAVAVFDPWGQGTLVTVSS
VL: DIQMTQSPSSLSASVGDRVTITCRASQDINNYLAWFQQKPGKAPRSLIYAASSLHSGVPSQFSASGSGSDFTLTISSLQPEDFATYYCPLYKSYPLTFGPGTKVDIK
notes: hybridoma mAb
B18: 66H11 (antibody, V domains shown)
VH: B17 VH with P30A, S31T, S55N, F95Y
VL: DIQMTQFPSSLFAFVGDRVTITCPASQGISNYLAWFQQKPGKAPKSLIYGAFNLHSGVPSKFSGSGFGTDFTLTINSLQPEDFANYYCQQYSCYPFTFGHGTKVDIK
notes: hybridoma mAb

The target in the first test is T1, recombinant, soluble human ASGR-1. The test is described as follows: Octet BLI dissociation, pH 7.4 minus calcium. In short, it runs like this: (§1)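 Antibodies were captured on anti-human Fc biosensors, and soluble ASGR-1 (6 ug/ml) was associated for 2 min in Tris buffer containing 1 mM CaCl2 at pH 7.4, followed by 10 min dissociation under each test condition. The signal at the end of association was set as 100%. Percent ASGR-1 still bound after 1 min of dissociation was compared with the pH 7.4 plus calcium control, and >10% extra dissociation was scored as sensitive.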
Take B1: the “% Change Compared to pH 7.4 + Calcium” value was determined as 25%.

Take B2: the “% Change Compared to pH 7.4 + Calcium” value amounted to 72%.

Turning to B3, the “% Change Compared to pH 7.4 + Calcium” value was 100%.

On to B4, for which the “% Change Compared to pH 7.4 + Calcium” value was 65%.

For the molecule B5, the “% Change Compared to pH 7.4 + Calcium” value turned out to be 79%.

As to B6, the “% Change Compared to pH 7.4 + Calcium” value came out at 68%.

Turning to B7, the “% Change Compared to pH 7.4 + Calcium” value turned out to be 75%.

Take B8: the “% Change Compared to pH 7.4 + Calcium” value was -1%.

In the case of B9, the “% Change Compared to pH 7.4 + Calcium” value is -1%.

In the case of B10, the “% Change Compared to pH 7.4 + Calcium” value was found to be 0%.

B11: the “% Change Compared to pH 7.4 + Calcium” value was -1%.

In the case of B12, the “% Change Compared to pH 7.4 + Calcium” value was -2%.

Consider B13, for which the “% Change Compared to pH 7.4 + Calcium” value is -2%.

With B14, the “% Change Compared to pH 7.4 + Calcium” value was -1%.

As to B15, the “% Change Compared to pH 7.4 + Calcium” value is -10%.

Take B16: the “% Change Compared to pH 7.4 + Calcium” value was found to be 0%.

For the molecule B17, the “% Change Compared to pH 7.4 + Calcium” value stood at 34%.

For the molecule B18, the “% Change Compared to pH 7.4 + Calcium” value stood at 81%.

The target is the same in another test. The test is described as follows: Octet BLI dissociation, pH 5.6 minus calcium. The procedure, abridged:
as §1
With B1, the “% Change Compared to pH 7.4 + Calcium” value is 45%.

Take B2: the “% Change Compared to pH 7.4 + Calcium” value amounted to 64%.

As to B3, the “% Change Compared to pH 7.4 + Calcium” value is 62%.

On to B4, for which the “% Change Compared to pH 7.4 + Calcium” value was determined as 42%.

On to B5, for which the “% Change Compared to pH 7.4 + Calcium” value was 75%.

B6: the “% Change Compared to pH 7.4 + Calcium” value was 64%.

B7: the “% Change Compared to pH 7.4 + Calcium” value came out at 16%.

Turning to B8, the “% Change Compared to pH 7.4 + Calcium” value was -6%.

Turning to B9, the “% Change Compared to pH 7.4 + Calcium” value is -5%.

Regarding B10, the “% Change Compared to pH 7.4 + Calcium” value is -5%.

For the molecule B11, the “% Change Compared to pH 7.4 + Calcium” value is -6%.

Regarding B12, the “% Change Compared to pH 7.4 + Calcium” value was -5%.

As for B13, the “% Change Compared to pH 7.4 + Calcium” value is -6%.

For B14, the “% Change Compared to pH 7.4 + Calcium” value is -9%.

B15: the “% Change Compared to pH 7.4 + Calcium” value is -11%.

Take B16: the “% Change Compared to pH 7.4 + Calcium” value is -5%.

As to B17, the “% Change Compared to pH 7.4 + Calcium” value was 61%.

For B18, the “% Change Compared to pH 7.4 + Calcium” value was determined as 52%.

Another test has the same target. As to the kind of experiment: Octet BLI dissociation, pH 5.6 plus calcium. In short, it runs like this:
as §1
B1: the “% Change Compared to pH 7.4 + Calcium” value amounted to 0%.

As for B2, the “% Change Compared to pH 7.4 + Calcium” value was 23%.

Regarding B3, the “% Change Compared to pH 7.4 + Calcium” value was determined as 33%.

Turning to B4, the “% Change Compared to pH 7.4 + Calcium” value stood at 16%.

In the case of B5, the “% Change Compared to pH 7.4 + Calcium” value stood at 24%.

In the case of B6, the “% Change Compared to pH 7.4 + Calcium” value was determined as 20%.

For the molecule B7, the “% Change Compared to pH 7.4 + Calcium” value was determined as 21%.

For the molecule B8, the “% Change Compared to pH 7.4 + Calcium” value was -12%.

B9: the “% Change Compared to pH 7.4 + Calcium” value is -5%.

For B10, the “% Change Compared to pH 7.4 + Calcium” value was -5%.

For the molecule B11, the “% Change Compared to pH 7.4 + Calcium” value was -6%.

For B12, the “% Change Compared to pH 7.4 + Calcium” value was -8%.

With B13, the “% Change Compared to pH 7.4 + Calcium” value was -5%.

Take B14: the “% Change Compared to pH 7.4 + Calcium” value was -9%.

Turning to B15, the “% Change Compared to pH 7.4 + Calcium” value is -15%.

Turning to B16, the “% Change Compared to pH 7.4 + Calcium” value is -5%.

Regarding B17, the “% Change Compared to pH 7.4 + Calcium” value came out at 7%.

With B18, the “% Change Compared to pH 7.4 + Calcium” value came to 36%.
